Measurements published in US20250250350A1.

What was measured:
ALPG-AF647 (human) = ALPG-AF647 (human) (UniProt P10696); assay: flow cytometry, lentivirally transduced primary T cells without PrimeR, stained with ALPG-AF647 (PrimeR axis) and MSLN-Bio / streptavidin-PE (CAR axis)
MSLN-Bio (human) = MSLN-Bio (human) (UniProt Q13421); assay: flow cytometry, lentivirally transduced primary T cells, stained with ALPG-AF647 (PrimeR axis) and MSLN-Bio / streptavidin-PE (CAR axis)
Sequence of MSLN-Bio (human) (Q13421 other isoform, or with tags, fused parts or gaps limits assumed): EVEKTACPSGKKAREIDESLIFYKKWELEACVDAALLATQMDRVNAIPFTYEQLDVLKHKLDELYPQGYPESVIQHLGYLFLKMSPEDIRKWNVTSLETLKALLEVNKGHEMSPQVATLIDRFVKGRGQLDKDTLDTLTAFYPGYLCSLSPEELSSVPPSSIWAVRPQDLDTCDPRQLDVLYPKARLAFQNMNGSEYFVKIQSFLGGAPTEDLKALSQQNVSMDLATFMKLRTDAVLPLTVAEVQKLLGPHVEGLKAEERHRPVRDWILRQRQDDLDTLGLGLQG

Sequence of ALPG-AF647 (human) (P10696 20-503 limits assumed): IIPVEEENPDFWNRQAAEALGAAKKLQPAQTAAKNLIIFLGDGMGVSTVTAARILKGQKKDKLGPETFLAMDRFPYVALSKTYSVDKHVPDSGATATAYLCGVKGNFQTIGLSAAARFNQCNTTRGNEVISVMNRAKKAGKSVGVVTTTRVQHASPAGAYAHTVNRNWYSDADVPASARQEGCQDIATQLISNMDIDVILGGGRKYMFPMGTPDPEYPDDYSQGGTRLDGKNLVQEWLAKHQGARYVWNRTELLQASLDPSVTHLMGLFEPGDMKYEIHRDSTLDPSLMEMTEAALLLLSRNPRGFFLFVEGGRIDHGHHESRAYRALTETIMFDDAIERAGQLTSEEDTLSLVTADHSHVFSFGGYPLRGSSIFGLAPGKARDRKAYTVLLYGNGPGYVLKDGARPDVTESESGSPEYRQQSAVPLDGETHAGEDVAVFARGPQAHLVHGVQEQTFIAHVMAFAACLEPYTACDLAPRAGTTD

SS1 CAR gave a % of cells PrimeR+ CAR+ (upper right quadrant) (ALPG-AF647 (human)) of 0.59%, a % of cells PrimeR+ CAR- (lower right quadrant) (ALPG-AF647 (human)) of 0.079% and a % of cells PrimeR+ CAR+ (upper right quadrant) (MSLN-Bio (human)) of 0.59%. It also gave a % of cells PrimeR- CAR+ (upper left quadrant) (MSLN-Bio (human)) of 59.2%.
